Test results as given in patent US20250163149A1, “ANTI-RAGE ANTIBODY” (Swansea University, priority 2022, published 2025).

How the values were obtained:
[1] = target: T1, synthetic peptide S155 of the RAGE V-domain (amino acids 39-65) (human); assay: SPR (Biacore T200), antibody amine-coupled to a CM5 chip as ligand, RAGE Peptide (S155) as analyte, multi-cycle kinetics, 1:1 fit
T1 construct: injected as analyte in SPR; also called RAGE synthetic peptide
T1 peptide: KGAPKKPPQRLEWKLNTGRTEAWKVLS
Method: Data were then fitted to a 1:1 binding model.
(§1) For on-rate and off-rate screening, Biacore™ T200 system (Cytiva, Uppsala, Sweden) was used to perform SPR analysis with 1×HBS-EP+ buffer (0.01M Hepes, 0.15M NaCl, 0.003M ethylenediaminetetraacetic acid, and 0.05% Surfactant P20, pH 7.4) (BR100669) used as sample and running buffer. The analysis temperature at the sensor chip surface and within the compartment was set to 25° C. Firstly, pH scouting with 10 mM sodium acetate buffer 4.0 (BR-1003-49), 10 mM sodium acetate buffer 4.5 (BR-1003-50), 10 mM sodium acetate buffer 5.0 (BR-1003-51) and 10 mM sodium acetate buffer 5.5 (BR-1003-52) was performed to identify the optimal pH required for ligand (α-RAGE antibodies) immobilization. This was followed by diluting the ligand with the appropriate Acetate buffer to at least 10 μg/mL. The ligand immobilization on the surface Series S Sensor Chip CM5 (29-1496-03, Cytiva) was performed using the Amine Coupling Kit (BR100050, Cytiva) containing 1-Etyhyl-3-(3-dimethylaminopropyl)-carbodiimide hydrochloride (EDC), N-Hydroxysuccinimide (NHS) and 1.0M ethanolamine-HcL PH 8.5 in accordance with the manufacturer's instructions. For each experimental run, the ligand was immobilized in flow cells 2 or 4 while flow cells 1 or 3 were left unmodified.

[2] = target: T2, RAGE synthetic peptide (S155) (Homo sapiens, UniProt Q15109); assay: ELISA screening of purified anti-RAGE antibody clones; type: binding; conditions: BSA-conjugated peptide S155; serial dilutions of antibody; 6 murine clones compared
T2 construct: purchased Biorad; host or cells: chemical synthesis
Method: A 96-well plate was coated with 5 μg/ml of RAGE synthetic peptides or RAGE recombinant protein diluted in phosphate-buffered saline (pH 7.4) overnight at 4° C. The solution was removed, washed with PBS-Tween (PBST) and the plate was blocked with ELISA ultrablock buffer (Biorad) for 1 h at room temperature. After blocking, the plate was washed with PBST and a range of concentrations of α-RAGE antibodies was applied to the plate for 2 h at room temperature. The plate was washed thoroughly with PBST and incubated with HRP-conjugated anti-mouse antibodies diluted 1:1000 in PBS-Tween. After washes with PBST, TMB Core+ substrate solution (Biorad) was added to each well and incubated at room temperature for 30 minutes. 0.2M H2SO4 was used as a stop solution. Absorbance at 450 nm was measured in a Biorad absorbance microplate reader.

SKOV3 cells = assay: Internalisation assay on SKOV3 cells; type: cell-based, human; conditions: 4 h or 24 h at 37° C., compared with other clones and AB11451
Method: To screen internalization capacity and traffic to lysosomes of α-RAGE antibodies, all the primary antibodies used in the screening were conjugated to pHAb Amine Reactive Dye following manufacturer's instructions (Promega, UK, Cat. No. G983). This type of dye emits fluorescence when traffics to acidic environments (late endosome and lysosome). For this purpose, 1.5×10^4 SKOV3 cells/well were seeded in 8-well chamber slides (Ibidi) in 300 μl of stripped medium and cultured for 24 h in a humidified, 5% CO2 in air atmosphere incubator at 37° C. After culture, cells were washed in pre-warmed (37° C.) Dulbecco's phosphate buffered saline (DPBS) and slides placed on ice. Cells were treated with control medium or medium containing one of the α-RAGE antibodies conjugated to pH-dye at 10 μg/ml, and the 8-well chamber slides were incubated on ice for 30 minutes. Slides were then transferred to the incubator at 37° C. for 4 h or 24 h. After internalization time, cells were washed in DPBS, fixed in 4% paraformaldehyde for 20 min and permeabilized with 0.1% Triton X-100 (Sigma) for 10 minutes at 4° C. Cells were washed with PBS extensively between all steps, counterstained before imaging with Hoechst (Life Technologies™) and imaged using a LSM710 confocal fluorescence microscopy system (Zeiss, UK). Unconjugated α-RAGE antibodies were also used in the internalisation assay. In this case were visualized using Alexa-fluorophore secondary antibodies as described in the immunofluorescence method.

[3] = target: T3, RAGE recombinant protein (Human rRAGE) (Homo sapiens, UniProt Q15109); assay: Surface plasmon resonance binding kinetics (Biacore T200), recombinant protein analyte; conditions: analyte RAGE recombinant protein, or RAGE synthetic peptide, not separated
T3 construct: Human rRAGE=Full-length RAGE recombinant protein from Merck; purchased Merck
T3 sequence (Q15109 23-404): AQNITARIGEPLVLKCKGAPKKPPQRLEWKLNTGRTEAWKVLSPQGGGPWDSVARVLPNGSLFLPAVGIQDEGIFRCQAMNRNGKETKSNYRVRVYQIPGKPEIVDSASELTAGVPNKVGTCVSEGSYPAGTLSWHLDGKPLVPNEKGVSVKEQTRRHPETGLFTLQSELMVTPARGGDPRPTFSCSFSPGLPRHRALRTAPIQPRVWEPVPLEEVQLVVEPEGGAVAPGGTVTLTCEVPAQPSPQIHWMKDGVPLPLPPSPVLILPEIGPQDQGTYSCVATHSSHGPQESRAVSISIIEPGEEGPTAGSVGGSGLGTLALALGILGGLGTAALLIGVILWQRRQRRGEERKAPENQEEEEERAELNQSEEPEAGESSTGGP
Method: as §1, with “unmodified. Flow cells 2 and 4 were used as active flow cells while flow cells 1 and 3 were used as reference flow cells. Ligand immobilization levels were typically within the range 500-900 RU for the kinetic experiments and injected with a flow rate of 10 μL/min and contact time of 300 s. Analytes (RAGE recombinant protein and synthetic peptides) were injected for 120 s with a flow rate of 30 μL/min and dissociation time of 600 s run in order of increasing concentration over the reference and active flow cells using a multi-cycle kinetic approach with five-seven concentration range. Following each binding cycle, the surface was regenerated with a 30 s injection of 10 mM Glycine-HcL, pH 2.5 regeneration solution (BR-1003-56), removing the bound antibody with a contact time of 30 s, flow rate of 30 μL/min and a stabilization period of Os. […]” for “unmodified.”

RAGE [4] = assay: Western blot on protein extracts from ovarian cancer cell lines (OCCL); design: species or system human; conditions: whole-cell extracts of SKOV3, OVCAR3, A2780 and cisplatin-resistant lines; antibody 1 μg/mL
Chain of RAGE (Q15109 23-317 limits assumed): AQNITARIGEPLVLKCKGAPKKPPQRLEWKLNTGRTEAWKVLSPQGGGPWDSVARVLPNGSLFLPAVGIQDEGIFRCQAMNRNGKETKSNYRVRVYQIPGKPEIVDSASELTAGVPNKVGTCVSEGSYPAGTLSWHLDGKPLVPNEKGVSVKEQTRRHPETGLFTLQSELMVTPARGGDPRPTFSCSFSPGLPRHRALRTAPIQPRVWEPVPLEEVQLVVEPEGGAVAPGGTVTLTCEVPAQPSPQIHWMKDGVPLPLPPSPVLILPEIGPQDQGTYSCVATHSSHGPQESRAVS
Method: Confluent cultures of cells were lysed in ice cold RIPA buffer (Sigma-Aldrich), whole-cell protein extracts were quantified with DC protein assay, 30 μg/lane were resolved by SDS-PAGE on TGX precast gels, transferred to mini PDVF membranes, blocked 1 h at RT in 5% Bovine Serum Albumin (BSA) in TBST (Tris Buffered Saline, 0.1% Tween-20) and incubated o/n at 4° C. in the same solution with 1 μg/mL of mA9 (sc-365154, Santa Cruz Biotechnology) antibody, mHA9 antibody or hHA9 antibody, or GAPDH (Santa Cruz Biotechnology) as loading control. Membranes were then washed with TBST and incubated 1 h at RT with 0.1 μg/mL of IgG horseradish peroxidase secondary antibody (GE Healthcare) or […] of Goat F(ab′) 2 Anti-Mouse IgG-F(ab′) 2 horseradish peroxidase secondary antibody (Abcam). Target proteins were visualised after incubation with Clarity Western ECL Substrate and imaged using a ChemiDoc System Bio-Rad Imager. Bands were quantified with ImageLab software. Unless stated all the materials specified above were obtained from Bio-Rad Laboratories.

RAGE [5] = target: RAGE (Homo sapiens, UniProt Q15109); assay: Western blot on protein extracts from human healthy tissues; conditions: brain, breast, kidney, liver, lung, ovary, pancreas, spleen and uterus
Chain of RAGE (Homo sapiens, UniProt Q15109) (Q15109 23-404): as the sequence (Q15109 23-404) above

[6] = target: synthetic peptide S155 of the RAGE V-domain (amino acids 39-65) (human); assay: SPR (Biacore T200), antibody amine-coupled to a CM5 chip as ligand, RAGE peptide S155 (BioRad) as analyte, multi-cycle kinetics, 1:1 fit; 'No steady state.'
[7] = target: Human rRAGE, full-length RAGE recombinant protein from Merck (human) (UniProt Q15109); assay: SPR (Biacore T200), antibody amine-coupled to a CM5 chip as ligand, RAGE recombinant protein (Merck) as analyte, multi-cycle kinetics, 1:1 fit
Chain of Human rRAGE, full-length RAGE recombinant protein from Merck (human) (Q15109 23-404 limits assumed): as the sequence (Q15109 23-404) above

[8] = target: synthetic peptide S155 of the RAGE V-domain (amino acids 39-65) (human); assay: ELISA, BSA-conjugated peptide S155 on the plate, two-fold dilutions of antibody, HRP anti-mouse, OD 450 nm

B1: chimeric HA9 (hHA9) anti-RAGE antibody (antibody, V domains shown)
VH: EVKLVETGGGLVQPGRPMKLSCVASGFTLSDHWMNWVRQSPEKGLEWVAQIRNRPYKFEKYYSDSVKGRFTISRDDSKNSVYLQMNNLRAEDMGIYYCSSYRYGLAYWGQGTLVTVST
VL: DNLLTQSPAILSVSPGERVSFSCRASQTIDTRIHWYQQRKNGSPRLLIRYISESLSGIPSRFSGSGSGTEFTLTINSVESEDIADYYCQQTESWPITFGSGTKLEIK
notes: Chimeric ('chimeric humanised format') version of HA9 made in HEK293 by Absolute Antibody
**Q.** For B1, which Kd [1] is on record?
**A.** Its Kd is 203 nM.

**Q.** What about the koff [1] of the same molecule?
**A.** The koff was 0.0032 s⁻¹.

B2: HA9: anti-RAGE monoclonal antibody clone, VH SEQ ID NO: 7, VL SEQ ID NO: 8, raised against RAGE aa 39-65 (antibody, V domains shown)
VH: EVKLVETGGGLVQPGRPMKLSCVASGFTLSDHWMNWVRQSPEKGLEWVAQIRNRPYKFEKYYSDSVKGRFTISRDDSKNSVYLQMNNLRAEDMGIYYCSSYRYGLAYWGQGTLVTVST
VL: DNLLTQSPAILSVSPGERVSFSCRASQTIDTRIHWYQQRKNGSPRLLIRYISESLSGIPSRFSGSGSGTEFTLTINSVESEDIADYYCQQTESWPITFGSGTKLEIK
**Q.** For B2, which “binding to immobilised RAGE synthetic peptide” value [2] is on record?
**A.** Its value is “best binding response to the antigen”.

**Q.** What about the “uptake (internalisation), secondary antibody detection” value (SKOV3 cells) of the same molecule?
**A.** The value was “highest uptake levels”.

B3: mHA9: murine version of anti-RAGE antibody clone HA9 (antibody, V domains shown)
VH: EVKLVETGGGLVQPGRPMKLSCVASGFTLSDHWMNWVRQSPEKGLEWVAQIRNRPYKFEKYYSDSVKGRFTISRDDSKNSVYLQMNNLRAEDMGIYYCSSYRYGLAYWGQGTLVTVST
VL: DNLLTQSPAILSVSPGERVSFSCRASQTIDTRIHWYQQRKNGSPRLLIRYISESLSGIPSRFSGSGSGTEFTLTINSVESEDIADYYCQQTESWPITFGSGTKLEIK
**Q.** Which “binding to immobilised RAGE synthetic peptide” value [2] does the source give for B3 here?
**A.** The value was “highest affinity for the peptide sequence antigen”.

**Q.** And the “affinity interaction by SPR (summary statement)” value [3]?
**A.** The value was “weak affinity interaction”.

**Q.** What about the “RAGE isoform detected by western blot” value (RAGE [4]) of the same molecule?
**A.** The value was “able to detect expression levels of full-length transmembrane RAGE”.

**Q.** What about the “RAGE expression detected in human healthy tissues” value (RAGE [5]) of the same molecule?
**A.** The value was “absent or very low expression”.

B4: murine ID9 anti-RAGE monoclonal antibody (antibody, part only; not given: Light chain variable region, V domains shown, part only)
VH: QVTLKESGPGILKPSQTLSLTCSFSGFSLSTSGMGVGWIRQPSGKGLEWLAHIWWDDDKYYKPSLKSQVTISKDTSRNQVFLKITSVDTADTATYYCARSRYYGSSGMDYWGQGTSVTVSS
**Q.** What does the source list for B4?
**A.** Kd [6]: 200 nM; koff [6]: 0.00515 s⁻¹; kon [6]: 25000 M⁻¹ s⁻¹; Kd [7]: 6940 nM; koff [7]: 0.00561 s⁻¹; kon [7]: 808 M⁻¹ s⁻¹; EC50 (read off the curve) [8]: 1 µg/mL
